The target in test [1] is T1, wild-type FliM (E. coli) (UniProt P06974).
T1 sequence: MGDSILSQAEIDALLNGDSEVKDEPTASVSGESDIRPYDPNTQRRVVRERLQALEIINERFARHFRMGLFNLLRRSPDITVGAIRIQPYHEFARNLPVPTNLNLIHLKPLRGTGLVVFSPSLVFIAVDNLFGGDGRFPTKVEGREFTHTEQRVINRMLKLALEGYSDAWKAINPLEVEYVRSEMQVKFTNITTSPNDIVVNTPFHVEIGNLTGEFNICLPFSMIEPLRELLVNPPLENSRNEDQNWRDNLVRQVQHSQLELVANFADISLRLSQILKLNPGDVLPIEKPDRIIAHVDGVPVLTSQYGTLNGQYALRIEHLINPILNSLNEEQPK

For test [2], the target named is T2, FliM-YFP (E. coli) (UniProt P06974).
T2 sequence: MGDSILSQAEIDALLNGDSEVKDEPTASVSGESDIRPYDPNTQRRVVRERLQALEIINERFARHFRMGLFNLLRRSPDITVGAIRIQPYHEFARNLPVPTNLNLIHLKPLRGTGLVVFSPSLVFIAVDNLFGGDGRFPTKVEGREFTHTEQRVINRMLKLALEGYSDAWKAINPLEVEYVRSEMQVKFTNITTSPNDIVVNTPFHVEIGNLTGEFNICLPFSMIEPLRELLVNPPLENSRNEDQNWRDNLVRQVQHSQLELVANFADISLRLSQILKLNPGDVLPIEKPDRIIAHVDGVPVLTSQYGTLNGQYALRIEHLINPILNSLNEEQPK

B1: CheY-P (natural protein)
chain: MADKELKFLVVDDFSTMRRIVRNLLKELGFNNVEEAEDGVDALNKLQAGGYGFVISDWNMPNMDGLELLKTIRADGAMSALPVLMVTAEAKKENIIAAAQAGASGYVVKPFTAATLEEKLNKIFEKLGM
modifications: phosphorylated (CheY-P); residue not given
In test [1], B1 had a CW bias of motors, bead assay, cheR cheB cells expressing wild-type FliM of 58%; a speed of motors, bead assay, cheR cheB cells expressing wild-type FliM of 51.5 Hz; a switching rate of motors, bead assay, cheR cheB cells expressing wild-type FliM of 3.4 s⁻¹. In test [2], this molecule registered a CW bias of motors, bead assay, cheR cheB cells expressing FliM-YFP of 61%; a speed of motors, bead assay, cheR cheB cells expressing FliM-YFP of 50.4 Hz; a switching rate of motors, bead assay, cheR cheB cells expressing FliM-YFP of 3.8 s⁻¹.
